Data reported in article PMC10209884, “Hypochlorite-induced oxidation promotes aggregation and reduces toxicity of amyloid beta 1-42” (Redox Biology, 2023).

Experiments:
[1] = system: cortical neurons; settings: in vitro, cortical neurons from rodents; cited from earlier work
Excerpt: The exact concentration of hypochlorite generated in cerebral spinal fluid is not known, but myeloperoxidase has been measured in human cerebrospinal fluid (CSF) from cognitively normal donors at 101 ± 43 pg/ml with corresponding activity of 0.0292 ± 0.001 mU [34]. Although myeloperoxidase activity is much less in CSF than in human serum, human serum also contains high levels of albumin which acts as an antioxidant. […] Considering that 3-chl ...

[2] = Western blot analysis of SDS-resistant Aβ1-42 assemblies; type: physicochemical; settings: higher concentrations of NaOCl, PBS overnight at ambient room temperature; 10-20% tris-tricine gel, WO2 Western blot
Experimental: (§1) When incubations differed from these standard conditions for a specific experiment, the details are provided in the relevant figure legend and in the relevant section of the Methods section.
Gels were stained using Instant Blue stain (Abcam; Melbourne, VIC, AUS) and imaged with Geldoc Go imager (Bio-Rad, NSW, AUS).
Blots were imaged after exposure to enhanced chemiluminescence reagent (Bio-Rad, NSW, AUS) using a ChemiDoc MP Imaging system (Bio-Rad, NSW, AUS).

[3] = Filter trap assay (insoluble Aβ1-42 retained on cellulose acetate membrane); type: physicochemical; settings: co-incubation with 1.6-fold molar excess of NaOCl vs Aβ1-42 in PBS alone; Aβ1-42 55 μM, PBS pH 7.4, overnight, ambient room temperature; 0.22 μm cellulose acetate membrane, WO2 blot densitometry; mean of n = 3
Experimental: as §1
Following treatment with NaOCl, Aβ1-42 samples were subjected to filter trap assay in order to estimate the amount of peptide present in the insoluble fraction. […] Following extraction of the soluble fraction using a vacuum, the wells of the apparatus were washed three times using 0.01% (v/v) Triton-X in PBS. […] Blots were imaged after exposure to enhanced chemiluminescence reagent (Bio-Rad, NSW, AUS) using a ChemiDoc MP Imaging system (Bio-Rad, NSW, AUS).

[4] = Size exclusion chromatography of Aβ1-42 assemblies; type: physicochemical; settings: 66.67 μM Aβ1-42, PBS, 1 h ambient room temperature
Excerpt: The absorbance at 280 nm was used to monitor the elution of the peptide.

[5] = system: SH-SY5Y cells; test: Incucyte endocytosis assay (colocalization with Lysotracker Red); type: cell-based, human; settings: Aβ1-42-Hilyte-488 (50 μM) pre-treated with 160 μM NaOCl, compared to copper/H2O2 treatment, Ham's F12, 4 °C, 4 days; 1 μM on cells, 1 h; n = 27 areas from three wells
Experimental: Images of the cells were taken after 1 h using an Incucyte SX5 (Sartorius).
Aβ1-42-Hilyte-488 (50 μM) was incubated with 160 μM NaOCl or […]/H2O2 in Ham's/F12 or Ham's/F12 alone for 4 days at 4 °C. SH-SY5Y cells seeded at 15,000 cells/well in a 96-well plate were then treated with 1 μM of Aβ1-42-Hilyte-488 in NB27 containing 100 nM Lysotracker Red DND-99. Images of cells (9 images per well) were taken after 1 h using an Incucyte SX5 (Sartorius). Colocalization of Aβ1-42-Hilyte-488 with Lysotracker Red was calculated using Incucyte live cell analysis software.

[6] = Transmission electron microscopy of ThT assay end-point samples; type: physicochemical; settings: end-point samples of ThT assay after NaOCl pre-treatment; 2% uranyl acetate stain
Experimental: Samples from the ThT kinetics assay (endpoints) were prepared for TEM on 400-mesh carbon film coated copper grids (EM resolutions Ltd.) and stained with 2% (w/v) uranyl acetate. Grids were imaged with a FEI Tecnai G2 transmission electron microscope (Cambridge Advanced Imaging Centre, University of Cambridge) and subsequent images analyzed with SIS Megaview II Image Capture system (Olympus).

[7] = system: SH-SY5Y neuroblastoma cells; test: Incucyte Cytotox Green cell death assay; type: cell-based, human; settings: Aβ1-42 (100 μM) pre-incubated with 80 μM NaOCl in Ham's/F12 2 h ambient room temperature; 15 μM Aβ1-42 on cells; vs Aβ1-42 without NaOCl
Experimental: Cell viability was also measured in real-time using Cytotox Green reagent (Essen Bioscience) in an Incucyte SX5 (Sartorius, South VIC, AUS), according to the manufacturer's instructions.

[8] = Thioflavin T (ThT) assay of amyloid fibril formation; type: physicochemical
Experimental: Aβ1–42 (4–5 μM) was incubated at 28 °C with shaking in PBS ± NaOCl containing ThT (20–25 μM). The ThT fluorescence of the samples was continuously monitored using a Clariostar platereader with excitation and emission wavelengths of 440 nm and 480 nm (slit widths of 10 nm), respectively. The data shown is the mean fluorescence of triplicate samples and is adjusted for the background fluorescence. In additional experiments, Aβ1–42 was pre-treated with NaOCl in PBS for 1 h at ambient room temperature before being supplemented with excess L-Met (20 mM). A control sample of Aβ1–42 was incubated in the absence of NaOCl as described previously and supplemented with L-Met. Aβ1–42 preparations were then subjected to a ThT assay incubated at 37 °C under quiescent conditions, and monitored as described above. Half-time (t1/2) values are the time to reach half of the maximum ThT fluorescence, calculated after normalising the aggregation data for 3 independent assays.

[9] = BisANS assay of surface exposed hydrophobicity; type: physicochemical; settings: NaOCl at sub-stoichiometric concentration vs Aβ1-42 in PBS alone, overnight, ambient room temperature, 10 μM Aβ1-42, 20 μM bisANS, 5 min, 25 °C, Ex 360 nm, Em 502 nm, mean of n = 10
Experimental: as §1
Aβ1-42 was treated with NaOCl and the solutions supplemented with excess L-Met. […] BisANS fluorescence (Excitation 360 nm, Emission 502 nm) was then measured using a Clariostar platereader (BMG Labtech). The data shown is the average BisANS fluorescence of n = 10 samples and is adjusted for background fluorescence.

[10] = Electrospray mass spectrometry of Aβ1-42 oxidation by NaOCl; type: physicochemical; settings: 5-fold molar excess of NaOCl; 31 μM Aβ1-42, PBS, 1 h on ice/4 °C, quenched with 20 mM L-Met; electrospray MS
Experimental: Aβ1–42 (31 μM) was incubated with NaOCl (0–360 μM) in PBS on ice for 1 h and the reaction was quenched using L-Met (20 mM). Electrospray mass spectrometry was performed on a Xevo G2 mass spectrometer and data was analyzed using MassLynx software (Waters UK, Elstree, Hertfordshire, UK) at the Department of Chemistry, University of Cambridge.

For `[Na+].[O-]Cl` [hypochlorite, sodium hypochlorite], the “hypochlorite concentration at which neurons are resistant to cell death” value [1] is given as “up to 200 μM”.

With “NaOCl-treated Aβ1-42: Aβ1-42 pre-incubated with sodium hypochlorite; singly oxidised species in heterogeneous assemblies” the “size of higher order SDS-resistant Aβ1-42 assemblies” value [2] was roughly 150 kDa, the “reduction in insoluble Aβ1-42 detected by filter trap assay” value [3] was 95% and the “SEC approximate molecular masses of predominate peaks” value ([4]; 2-fold molar excess of NaOCl (133.33 μM), Superdex 75 Increase 3.2/300, A280, ≥100 kDa = exclusion limit) was no less than 100 kDa. For the same molecule, the “internalisation to lysosomes (colocalization area of Aβ1-42-Hilyte-488 and Lysotracker Red)” value [5] was “preferentially internalise”.

In the case of amyloid beta peptide 1–42 [Aβ1-42], the “formation of amyloid fibrils by TEM” value [6] is reported as “markedly reduced”, the “cell death after 72 h (green object count)” value [7] is reported as “approximately halved” and the “amyloid-associated ThT fluorescence over a 7-hr time course” value ([8]; co-incubation with 2-fold molar excess of NaOCl, 5 μM Aβ1-42, 25 μM ThT, PBS, 28 °C, orbital shaking, mean of n = 4) is reported as “significantly suppress”. The “increase in amyloid-associated ThT fluorescence (half-time t1/2)” value ([8]; pre-treatment with 1.6-fold molar excess of NaOCl in PBS 1 h RT, quenched with excess L-Met, 4 μM Aβ1-42, 25 μM ThT, 37 °C, mean of n = 3) was “significantly delayed”, the “amyloid-associated ThT fluorescence over the 15 h of the assay” value ([8]; pre-treatment with 3.2-fold molar excess of NaOCl in PBS 1 h RT, quenched with excess L-Met, 4 μM Aβ1-42, 25 μM ThT, 37 °C, mean of n = 3) was “prevented” and the “BisANS fluorescence (surface exposed hydrophobicity)” value [9] was “substantial decrease”. For the same molecule, the “fraction of the peptide oxidised (singly oxidised species, 4530 Da)” value [10] was “around half” and the “SEC apparent size of the majority of the peptide (monomer)” value ([4]; no NaOCl, Superdex 75 Increase 3.2/300, 0.05 ml/min, A280) was 4.5 kDa.
